± gives the uncertainty stated by the source.
Test: protein stability index of a GFP-peptide fusion (yeast GPS) (PSI 1-4); higher = more stable; sorted into four equal gates, so the index is relative within each strain
Outline: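 Tiled yeast protein peptides of 17 residues were each joined downstream of GFP, on plasmids that also express Cherry. The pooled library was maintained in yeast, and mid-log cultures in leucine-free medium were sorted into four equal gates on the GFP/Cherry ratio. Plasmids from every gate were amplified by PCR and sequenced on Illumina, with barcodes linking reads to strains. The protein stability index of a peptide is its gate-number-weighted read frequency summed over the gates.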

| Sequence | protein stability index (doa10∆) | protein stability index (pdr5∆) | protein stability index (san1∆) | protein stability index (ubr1∆) |
| --- | --- | --- | --- | --- |
| HKPNEGRTPNISNGTIN [SIR4] | 2.92 ± 0.071 | 2.9 ± 0.046 | 2.99 ± 0.056 | 3.07 ± 0.048 |
| AHMWPRVHDQPLIWQLL [POP3] | 1.42 ± 0.12 | 1.64 ± 0.12 | 1.44 ± 0.23 | 1.51 ± 0.11 |
| DPFSIYGFSNKEYISRL [SNF5] | 1.89 ± 0.066 | 2.39 ± 0.15 | 2.69 ± 0.071 | 2.34 ± 0.075 |
| KSSGSSMATPTHSDSHE [ROX3] | 3.08 ± 0.16 | 2.97 ± 0.1 | 2.82 ± 0.064 | 2.52 ± 0.091 |
| IVNNDLPTTVVSNPGDN [MED2] | 2.84 ± 0.051 | 2.96 ± 0.052 | 2.82 ± 0.052 | 3.02 ± 0.033 |
| TGLCSFDYSVILNSIPA [YJL039C/NUP192] | 1.6 ± 0.052 | 1.51 ± 0.059 | 1.49 ± 0.095 | 1.28 ± 0.045 |
| NLPEHIVPGTYIQERNP [RPS10A] | 2.64 ± 0.069 | 2.62 ± 0.068 | 2.7 ± 0.047 | 2.68 ± 0.045 |
| ESNIKMTLEDNNVTSNP [SSN2] | 2.91 ± 0.092 | 3.25 ± 0.11 | 2.68 ± 0.086 | 2.95 ± 0.055 |
| GKIRGVEDDLVTVQTEL [SMC2] | 3.1 ± 0.12 | 2.62 ± 0.068 | 2.48 ± 0.077 | 2.85 ± 0.076 |
| TCAVGVKGKNCVVLGCE [PRE6] |  |  |  | 3.42 ± 0.24 |
| LSAENIEERLVAIAEQD [SCL1] | 3.22 ± 0.083 | 3.18 ± 0.089 | 3.33 ± 0.061 | 3.32 ± 0.066 |
| STLKSFFTNPNKKRPSS [YOR098C/NUP1] | 2.79 ± 0.052 | 3.06 ± 0.049 | 3.08 ± 0.043 | 2.91 ± 0.045 |
| QLSNWQKIRNSEGISEA [ITC1] | 2.94 ± 0.06 | 2.96 ± 0.083 | 2.97 ± 0.065 | 2.8 ± 0.073 |
| SRKQKVIKTLTVDVSSP [RPL22B] | 2.52 ± 0.094 | 2.6 ± 0.08 | 2.36 ± 0.12 | 2.79 ± 0.058 |
| MKWDFAKDIKGYGTQKI [PRE4] | 2.15 ± 0.064 | 1.85 ± 0.057 | 1.84 ± 0.12 | 1.4 ± 0.048 |
| STRKTPNGEGSKTWETY [RPS20] | 3.19 ± 0.17 | 3.36 ± 0.16 | 3.07 ± 0.11 | 3.34 ± 0.082 |
| AISKKNKSLKYVIHGIE [LIN1] | 2.02 ± 0.058 | 1.84 ± 0.053 | 2.11 ± 0.084 | 1.84 ± 0.04 |
| PPLTYKNDTKILVLALE [PRP8] | 2.58 ± 0.057 | 2.48 ± 0.043 | 2.52 ± 0.055 | 2.04 ± 0.029 |
| NLYHVTEDGWIYHGNHD [PRE2] |  | 2.97 ± 0.23 | 2.88 ± 0.18 | 3.28 ± 0.22 |

| Sequence | protein stability index (doa10∆) | protein stability index (pdr5∆) | protein stability index (san1∆) | protein stability index (ubr1∆) |
| --- | --- | --- | --- | --- |
| NTNNNNTNNNNNPANNT [SWI1] | 3.35 ± 0.044 | 3.354 ± 0.033 | 3.409 ± 0.027 | 3.3 ± 0.044 |
| LLQEGGSLSGNSSSMEE [ESC2] | 2.97 ± 0.11 | 2.67 ± 0.16 | 2.38 ± 0.13 | 2.64 ± 0.096 |
| NDNIGANRSRFNNEAPP [SMB1] | 2.64 ± 0.076 | 3.02 ± 0.047 | 2.54 ± 0.065 | 3.01 ± 0.067 |
| PALLRPGRLDRKIEFPS [RPT3] | 3.2 ± 0.11 | 3.08 ± 0.11 | 3.07 ± 0.11 | 3 ± 0.066 |
| GFQDRSLPHFPKNSKTP [RPO31] | 2.7 ± 0.14 | 1.96 ± 0.1 | 1.56 ± 0.11 |  |
| SVAKIRFPETMDETQTR [RPO21] | 3.55 ± 0.073 | 3.34 ± 0.12 | 3.66 ± 0.063 | 3.59 ± 0.049 |
| SYEVEHVIQIPLNKPLL [TAF14] | 2.46 ± 0.069 | 2.66 ± 0.045 | 2.52 ± 0.06 | 2.51 ± 0.055 |
| GNIVAELAQDPQTMEHY [YCS4] | 2.9 ± 0.1 | 3.4 ± 0.17 | 3.44 ± 0.16 | 2.07 ± 0.11 |
| KSTDLTPKGNESEQELS [MTR3] | 3.39 ± 0.11 | 2.9 ± 0.089 | 2.46 ± 0.089 | 3.21 ± 0.054 |
| PENITKREASRGFFDIL [MCD1] | 3.1 ± 0.08 | 3.01 ± 0.082 | 3.13 ± 0.062 | 3.21 ± 0.058 |
| TSGKVELPKKLLNLPPF [SRB8] | 2.57 ± 0.27 | 3.1 ± 0.25 | 2.67 ± 0.26 | 2.55 ± 0.14 |
| DLVKPKNPKFSNAFYSV [SMC4] | 2.43 ± 0.062 | 2.42 ± 0.064 | 2.26 ± 0.074 | 2.82 ± 0.067 |
| LQDVIALSIADDASSAE [RPC53] | 2.47 ± 0.11 | 1.57 ± 0.079 | 2.16 ± 0.17 | 2.81 ± 0.077 |
| WNLNQFQIEADFIGHNS [ASC1] | 2.79 ± 0.079 | 2.7 ± 0.058 | 2.95 ± 0.076 | 2.52 ± 0.059 |
| NTHWGLVCPAETPEGQA [RPB2] | 1.53 ± 0.14 | 1.49 ± 0.1 | 1.78 ± 0.15 | 1.14 ± 0.097 |
| MKYIQTEQQIEVPEGVT [RPL9A] | 2.54 ± 0.089 | 2.75 ± 0.082 | 2.83 ± 0.11 | 2.77 ± 0.053 |
| LGYARFILLDRLRQFNL [SMC4] | 2.36 ± 0.061 | 1.8 ± 0.065 | 1.75 ± 0.079 | 1.63 ± 0.061 |
| EKCKEINVETVYDIMAL [BRR2] | 2.28 ± 0.059 | 2.44 ± 0.049 | 2.57 ± 0.07 | 2.5 ± 0.046 |
